The labels stand for the following.
B1: NRC3_wobSeed113_DR4_G20A_o1 (dsDNA)
DNA 1: GCATATGTAGGTTAGCTGGAGTCATTCAGACTAGGCGCGATTGACAGCGTAGAATGAAGG
DNA 2: CCTTCATTCTACGCTGTCAATCGCGCCTAGTCTGAATGACTCCAGCTAACCTACATATGC
B2: NRC3_random_hg19_61_o1 (dsDNA)
DNA 1: GCGCAGAGGTTGCAATGAGCCAAGATTGTACCACTGGCGATTGACAGCGTAGAATGAAGG
DNA 2: CCTTCATTCTACGCTGTCAATCGCCAGTGGTACAATCTTGGCTCATTGCAACCTCTGCGC
B3: NRC3_wobSeed27_DR1_C20A_o1 (dsDNA)
DNA 1: GCACTCGGAGGACAAAGGTAAGAGCTACGCCAGTGAGCGATTGACAGCGTAGAATGAAGG
DNA 2: CCTTCATTCTACGCTGTCAATCGCTCACTGGCGTAGCTCTTACCTTTGTCCTCCGAGTGC
B4: NRC3_random_hg19_352_o1 (dsDNA)
DNA 1: GCGAGATGCAGCCAACCTGTAGAGATCCTGTGGAGAGCGATTGACAGCGTAGAATGAAGG
DNA 2: CCTTCATTCTACGCTGTCAATCGCTCTCCACAGGATCTCTACAGGTTGGCTGCATCTCGC
B5: NRC3_random_hg19_100_o1 (dsDNA)
DNA 1: GCGAGTTTGAGACCAGCCTGGCCAACATGGCAAGAGGCGATTGACAGCGTAGAATGAAGG
DNA 2: CCTTCATTCTACGCTGTCAATCGCCTCTTGCCATGTTGGCCAGGCTGGTCTCAAACTCGC
B6: NRC3_random_hg19_472_o1 (dsDNA)
DNA 1: GCTGATGGGCTTCAAGTTGCTAACCCAGGAAATGGAGCGATTGACAGCGTAGAATGAAGG
DNA 2: CCTTCATTCTACGCTGTCAATCGCTCCATTTCCTGGGTTAGCAACTTGAAGCCCATCAGC
B7: NRC3_random_hg19_86_o1 (dsDNA)
DNA 1: GCAAACAAGGAGGAGAGGTGTTCTGGAGAACTGCTTGCGATTGACAGCGTAGAATGAAGG
DNA 2: CCTTCATTCTACGCTGTCAATCGCAAGCAGTTCTCCAGAACACCTCTCCTCCTTGTTTGC
B8: NRC3_wobSeed114_DR4_C13G_o1 (dsDNA)
DNA 1: GCAATACAGGGTGATCGTAGGCCAGAGTACGCACAGGCGATTGACAGCGTAGAATGAAGG
DNA 2: CCTTCATTCTACGCTGTCAATCGCCTGTGCGTACTCTGGCCTACGATCACCCTGTATTGC
B9: NRC3_wobSeed100_DR4_C23G_o1 (dsDNA)
DNA 1: GCCCTACTGGGCCACGAAAGGTGATTGATTCAGTGAGCGATTGACAGCGTAGAATGAAGG
DNA 2: CCTTCATTCTACGCTGTCAATCGCTCACTGAATCAATCACCTTTCGTGGCCCAGTAGGGC
B10: NRC3_random_hg19_262_o1 (dsDNA)
DNA 1: GCGACTAATGCTTACCTTTAGAAAGTGCAAGTGAATGCGATTGACAGCGTAGAATGAAGG
DNA 2: CCTTCATTCTACGCTGTCAATCGCATTCACTTGCACTTTCTAAAGGTAAGCATTAGTCGC
B11: NRC3_wobSeed29_DR1_G17A_o1 (dsDNA)
DNA 1: GCGCTTACGGGTCAAAAGTTATAGCATGAATAGAATGCGATTGACAGCGTAGAATGAAGG
DNA 2: CCTTCATTCTACGCTGTCAATCGCATTCTATTCATGCTATAACTTTTGACCCGTAAGCGC
B12: NRC3_random_hg19_46_o1 (dsDNA)
DNA 1: GCAGTAATGCCAATGTCATGATGTGGTCCAGGAATGGCGATTGACAGCGTAGAATGAAGG
DNA 2: CCTTCATTCTACGCTGTCAATCGCCATTCCTGGACCACATCATGACATTGGCATTACTGC
B13: NRC3_random_hg19_97_o1 (dsDNA)
DNA 1: GCAAAGGCCTGAGAACCAGGACCTCCAGTGTCCTCAGCGATTGACAGCGTAGAATGAAGG
DNA 2: CCTTCATTCTACGCTGTCAATCGCTGAGGACACTGGAGGTCCTGGTTCTCAGGCCTTTGC
B14: NRC3_random_hg19_495_o1 (dsDNA)
DNA 1: GCGCACCATCTGTGAGAAAGTAGCCCTTCACCAAACGCGATTGACAGCGTAGAATGAAGG
DNA 2: CCTTCATTCTACGCTGTCAATCGCGTTTGGTGAAGGGCTACTTTCTCACAGATGGTGCGC
B15: NRC3_random_hg19_151_o1 (dsDNA)
DNA 1: GCCCCAATCTACTAGAAACACTTCCTGGAGAACCCGGCGATTGACAGCGTAGAATGAAGG
DNA 2: CCTTCATTCTACGCTGTCAATCGCCGGGTTCTCCAGGAAGTGTTTCTAGTAGATTGGGGC
B16: NRC3_wobSeed74_DR3_T21G_o1 (dsDNA)
DNA 1: GCTCTAGTTGGTCACGGAGGGCACACACGACGGGTAGCGATTGACAGCGTAGAATGAAGG
DNA 2: CCTTCATTCTACGCTGTCAATCGCTACCCGTCGTGTGTGCCCTCCGTGACCAACTAGAGC
B17: NRC3_random_hg19_477_o1 (dsDNA)
DNA 1: GCAACAAACTTCCTTGCTCTAGTTCATCAGCAATGAGCGATTGACAGCGTAGAATGAAGG
DNA 2: CCTTCATTCTACGCTGTCAATCGCTCATTGCTGATGAACTAGAGCAAGGAAGTTTGTTGC
B18: NRC3_random_hg19_110_o1 (dsDNA)
DNA 1: GCTGCTGATTCATAGCTTGTAACTTCGTGTTCTTTAGCGATTGACAGCGTAGAATGAAGG
DNA 2: CCTTCATTCTACGCTGTCAATCGCTAAAGAACACGAAGTTACAAGCTATGAATCAGCAGC
B19: NRC3_random_hg19_201_o1 (dsDNA)
DNA 1: GCCAAGGCTACCAAAGCAGTTTCTGGGCATGCTGAGGCGATTGACAGCGTAGAATGAAGG
DNA 2: CCTTCATTCTACGCTGTCAATCGCCTCAGCATGCCCAGAAACTGCTTTGGTAGCCTTGGC
B20: NRC3_random_hg19_39_o1 (dsDNA)
DNA 1: GCGGGCAACTCGTTCGACTCAGGGAGCTATGGGTAGGCGATTGACAGCGTAGAATGAAGG
DNA 2: CCTTCATTCTACGCTGTCAATCGCCTACCCATAGCTCCCTGAGTCGAACGAGTTGCCCGC
B21: NRC3_random_hg19_65_o1 (dsDNA)
DNA 1: GCATGGTGATGAAAGCAAAGGAGTAATGTTTCTGTGGCGATTGACAGCGTAGAATGAAGG
DNA 2: CCTTCATTCTACGCTGTCAATCGCCACAGAAACATTACTCCTTTGCTTTCATCACCATGC
B22: NRC3_random_hg19_193_o1 (dsDNA)
DNA 1: GCTGGAAGATGAAGAAGAACTATTGCTCGATGGAGAGCGATTGACAGCGTAGAATGAAGG
DNA 2: CCTTCATTCTACGCTGTCAATCGCTCTCCATCGAGCAATAGTTCTTCTTCATCTTCCAGC
B23: NRC3_random_hg19_182_o1 (dsDNA)
DNA 1: GCGCAGGAGACTCACTTGTGCATGCAGGGTTGAGGCGCGATTGACAGCGTAGAATGAAGG
DNA 2: CCTTCATTCTACGCTGTCAATCGCGCCTCAACCCTGCATGCACAAGTGAGTCTCCTGCGC
B24: NRC3_random_hg19_405_o1 (dsDNA)
DNA 1: GCAGCGCACCAGCATGGCACATGTATACATATGTAAGCGATTGACAGCGTAGAATGAAGG
DNA 2: CCTTCATTCTACGCTGTCAATCGCTTACATATGTATACATGTGCCATGCTGGTGCGCTGC
B25: NRC3_random_hg19_122_o1 (dsDNA)
DNA 1: GCTGGCAATGGCTGGACCACTCCAAGAACTGTGTGGGCGATTGACAGCGTAGAATGAAGG
DNA 2: CCTTCATTCTACGCTGTCAATCGCCCACACAGTTCTTGGAGTGGTCCAGCCATTGCCAGC
B26: NRC3_random_hg19_71_o1 (dsDNA)
DNA 1: GCCATGTCACCTCCCTGAGGTGCAGTTTGCTTCAAGGCGATTGACAGCGTAGAATGAAGG
DNA 2: CCTTCATTCTACGCTGTCAATCGCCTTGAAGCAAACTGCACCTCAGGGAGGTGACATGGC

From paper PMC6555819, “Comprehensive study of nuclear receptor DNA binding provides a revised framework for understanding receptor specificity” come the findings set out here.

LXRb:RXRa, sequence (P55055 whole entry, chain 1 of 2): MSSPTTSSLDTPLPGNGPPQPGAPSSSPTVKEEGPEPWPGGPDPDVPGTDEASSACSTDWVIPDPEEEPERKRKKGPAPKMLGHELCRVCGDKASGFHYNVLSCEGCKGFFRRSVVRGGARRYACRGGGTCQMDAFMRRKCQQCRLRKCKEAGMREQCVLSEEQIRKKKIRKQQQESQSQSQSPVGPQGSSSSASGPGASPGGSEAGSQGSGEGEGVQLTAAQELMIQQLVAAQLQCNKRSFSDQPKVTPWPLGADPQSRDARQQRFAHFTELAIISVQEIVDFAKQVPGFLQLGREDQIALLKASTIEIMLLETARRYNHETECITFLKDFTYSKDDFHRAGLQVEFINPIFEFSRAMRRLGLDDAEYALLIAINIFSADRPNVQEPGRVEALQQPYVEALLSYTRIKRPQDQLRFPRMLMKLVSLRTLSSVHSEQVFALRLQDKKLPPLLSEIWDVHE
LXRb:RXRa, sequence (P19793 whole entry, chain 2 of 2): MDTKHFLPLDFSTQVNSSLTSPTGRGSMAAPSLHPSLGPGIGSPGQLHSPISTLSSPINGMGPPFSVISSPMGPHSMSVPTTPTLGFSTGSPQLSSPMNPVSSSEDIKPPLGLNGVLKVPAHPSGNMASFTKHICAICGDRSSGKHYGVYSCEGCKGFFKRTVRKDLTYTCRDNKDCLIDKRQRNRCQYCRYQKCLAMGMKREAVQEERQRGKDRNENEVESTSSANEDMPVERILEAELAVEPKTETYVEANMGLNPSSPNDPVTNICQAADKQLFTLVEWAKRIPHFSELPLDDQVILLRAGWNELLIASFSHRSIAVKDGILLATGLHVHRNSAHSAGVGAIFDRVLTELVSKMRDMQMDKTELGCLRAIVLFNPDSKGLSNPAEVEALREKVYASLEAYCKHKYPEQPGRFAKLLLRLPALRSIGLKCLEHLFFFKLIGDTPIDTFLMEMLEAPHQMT
RARg:RXRa, sequence (P13631 whole entry, chain 1 of 2): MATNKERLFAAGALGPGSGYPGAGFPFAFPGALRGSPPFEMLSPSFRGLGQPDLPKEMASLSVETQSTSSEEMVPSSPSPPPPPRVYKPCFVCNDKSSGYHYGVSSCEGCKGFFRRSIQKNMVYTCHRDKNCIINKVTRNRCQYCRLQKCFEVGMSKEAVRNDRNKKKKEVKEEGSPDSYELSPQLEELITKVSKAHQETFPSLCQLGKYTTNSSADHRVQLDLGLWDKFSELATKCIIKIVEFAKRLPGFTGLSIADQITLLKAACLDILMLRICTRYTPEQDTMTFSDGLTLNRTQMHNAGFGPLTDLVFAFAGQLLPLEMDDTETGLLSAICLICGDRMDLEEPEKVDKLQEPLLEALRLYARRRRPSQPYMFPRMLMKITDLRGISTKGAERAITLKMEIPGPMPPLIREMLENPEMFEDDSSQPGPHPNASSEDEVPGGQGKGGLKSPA
RARg:RXRa, sequence (P19793 whole entry, chain 2 of 2): as the sequence (P19793 whole entry, chain 2 of 2) above

The target of the first data set is LXRb:RXRa (Homo sapiens, UniProt P55055;P19793 full;full). Description: no ligand; PBM; 270 nM : 90 nM RXRa; PBS pH 7.4, 2% milk, 0.02% Triton X-100, 1 mM DTT, BSA, 0.4 mg/ml salmon testes DNA. The settings on record: tags: His kept;His cleaved; copies: 1;1; label: surface-attached array probe. In outline:
(§1)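 Custom Agilent 4×180K protein-binding microarrays carried double-stranded probes. Their 34-nt variable regions held direct-repeat seeds, single-nucleotide variants, half-site ablations and random human genomic background sequences. Arrays were incubated 1 h with ligand-free nuclear receptor dimers in PBS pH 7.4, 2% milk, 0.02% Triton X-100, 1 mM DTT, 0.2 mg/mL BSA and 0.4 mg/ml salmon testes DNA. Antibodies against each partner (one per run) detected binding, and scanned fluorescence was regression-normalized. Binding z-scores use random background probes as reference.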
For B1, the binding signal is 0.16 PBM z-score against 500 random probes. Still for that read-out and setting: then B2, with -0.15 PBM z-score against 500 random probes. Same read-out and setting: then B3, with -0.49 PBM z-score against 500 random probes. The same measure, in the same setting: the result for B4 reads -0.67 PBM z-score against 500 random probes; that for B5, -1.11 PBM z-score against 500 random probes; that for B6, -0.26 PBM z-score against 500 random probes. Turning to B7, the binding signal is 0.18 PBM z-score against 500 random probes.

Consider B8, for which the binding signal is 0.1 PBM z-score against 500 random probes. The same measure, in the same setting: the result for B9 reads -0.2 PBM z-score against 500 random probes.

In the case of B10, the binding signal is 0.24 PBM z-score against 500 random probes. On the same count and under the same terms, the result for B11 reads 3.65 PBM z-score against 500 random probes. Same read-out and setting: then B12, with -0.76 PBM z-score against 500 random probes; and B13, with -0.68 PBM z-score against 500 random probes; and B14, with -0.24 PBM z-score against 500 random probes. The same measure, in the same setting: then B15, with 0.38 PBM z-score against 500 random probes. Regarding B16, the binding signal is 0.5 PBM z-score against 500 random probes. The same measure, in the same setting: then B17, with 0.49 PBM z-score against 500 random probes. The same measure, in the same setting: the result for B18 reads -0.27 PBM z-score against 500 random probes. Still for that read-out and setting: then B19, with -0.95 PBM z-score against 500 random probes. With B20, the binding signal was -0.61 PBM z-score against 500 random probes.

As to B21, the binding signal is 0.22 PBM z-score against 500 random probes.

With B22, the binding signal is -0.54 PBM z-score against 500 random probes. Same read-out and setting: then B23, with -1.08 PBM z-score against 500 random probes; and B24, with -0.44 PBM z-score against 500 random probes; and B25, with -0.85 PBM z-score against 500 random probes. On the same count and under the same terms, the result for B26 reads 0.34 PBM z-score against 500 random probes.

Another data set deals with FXR:RXRa (Homo sapiens, UniProt Q96RI1;P19793 full;full). The description is as above. The settings on record: tags: His kept;His cleaved; copies: 1;1; label: surface-attached array probe. The method, boiled down: as §1
FXR:RXRa, sequence (Q96RI1 whole entry, chain 1 of 2): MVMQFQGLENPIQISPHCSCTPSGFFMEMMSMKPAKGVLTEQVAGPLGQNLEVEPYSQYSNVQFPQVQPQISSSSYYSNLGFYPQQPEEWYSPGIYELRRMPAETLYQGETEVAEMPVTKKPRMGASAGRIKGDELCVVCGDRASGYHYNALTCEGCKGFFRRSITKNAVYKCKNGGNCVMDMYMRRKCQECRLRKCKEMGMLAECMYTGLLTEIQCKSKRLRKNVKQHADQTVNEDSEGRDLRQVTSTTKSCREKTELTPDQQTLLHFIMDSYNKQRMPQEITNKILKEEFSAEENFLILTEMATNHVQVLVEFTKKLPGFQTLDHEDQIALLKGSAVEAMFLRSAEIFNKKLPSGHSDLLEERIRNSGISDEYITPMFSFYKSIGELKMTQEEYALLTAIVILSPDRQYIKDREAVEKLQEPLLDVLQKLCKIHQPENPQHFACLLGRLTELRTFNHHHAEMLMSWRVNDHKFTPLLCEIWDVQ
FXR:RXRa, sequence (P19793 whole entry, chain 2 of 2): as the sequence (P19793 whole entry, chain 2 of 2) above
Take B4: the binding signal was -0.39 PBM z-score against 500 random probes.

As for B5, the binding signal is -0.7 PBM z-score against 500 random probes. On the same count and under the same terms, then B10, with 0.19 PBM z-score against 500 random probes; and B14, with -0.51 PBM z-score against 500 random probes; and B16, with 0.34 PBM z-score against 500 random probes.

Another data set has as its target RARg:RXRa (Homo sapiens, UniProt P13631;P19793 full;full). Described as above. The settings on record: tags: His kept;His cleaved; copies: 1;1; label: surface-attached array probe. In outline:
as §1
Consider B4, for which the binding signal was -0.52 PBM z-score against 500 random probes. On the same count and under the same terms, then B11, with 4.11 PBM z-score against 500 random probes; and B15, with -0.01 PBM z-score against 500 random probes. In the case of B18, the binding signal is -0.76 PBM z-score against 500 random probes.

In a further data set the target is PPARa:RXRa (Homo sapiens, UniProt Q07869;P19793 full;full). The description is as above. The settings on record: tags: GST kept;His cleaved; copies: 1;1; label: surface-attached array probe. The method, boiled down: as §1
PPARa:RXRa, sequence (Q07869 whole entry, chain 1 of 2): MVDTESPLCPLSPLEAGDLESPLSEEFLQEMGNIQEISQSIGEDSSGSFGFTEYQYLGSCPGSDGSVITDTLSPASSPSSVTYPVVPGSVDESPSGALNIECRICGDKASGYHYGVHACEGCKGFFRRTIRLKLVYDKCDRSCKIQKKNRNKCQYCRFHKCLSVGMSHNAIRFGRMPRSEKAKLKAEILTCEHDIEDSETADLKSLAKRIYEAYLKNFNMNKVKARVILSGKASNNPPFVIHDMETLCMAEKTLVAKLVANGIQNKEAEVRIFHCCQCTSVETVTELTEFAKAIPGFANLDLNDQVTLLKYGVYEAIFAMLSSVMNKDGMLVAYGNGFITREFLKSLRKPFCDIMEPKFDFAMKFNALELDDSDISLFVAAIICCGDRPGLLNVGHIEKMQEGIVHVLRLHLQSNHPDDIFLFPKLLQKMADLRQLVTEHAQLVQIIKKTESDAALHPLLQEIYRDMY
PPARa:RXRa, sequence (P19793 whole entry, chain 2 of 2): as the sequence (P19793 whole entry, chain 2 of 2) above
As to B4, the binding signal was -0.6 PBM z-score against 500 random probes. On the same count and under the same terms, the result for B10 reads 0.36 PBM z-score against 500 random probes; that for B19, -0.55 PBM z-score against 500 random probes.
